Measured values as given in the nanobody polyreactivity screen of Harvey et al. (2022).

Assay: yeast display, Sf9 membrane polyspecificity reagent, FACS + sequencing; frameworks hold sequencing errors
How it was run: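 After 36–48 hours of galactose induction, yeast (Saccharomyces cerevisiae BJ5465) displaying a synthetic nanobody library were stained at 4 °C for 1 hour with 10% biotinylated, detergent-solubilized Sf9 membrane reagent. Streptavidin microbeads enriched the stained cells before FACS sorting into low and high (top ~1%) gates on anti-HA and streptavidin fluorescence. Each clone's polyreactivity label reflects its gate of origin.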

Question: For “QVQLQEIGGGLVQAGGSLRQSYAASGYIFPSLAMGWYRQAQGKEREFVAAIGRGSTNNYADSVKGRFTISRDNAKNTAYQQMNSLKPEDTAVYYCAVVQRSKRTYPWYDYWGQGTQVTVSS”, which “polyreactivity (PSR sort gate)” value is on record?
Answer: low polyreactivity

Question: With “QVQLVESGGGLVQAGGSLRLSCAASGSIFTFYAMGWYIQAPGKERELVAAISSGGDTYYADSVKGRFTISRDNAKNTVYLQKNILKPEDTAVYYCAADWRGSYLYGYYYWGQGTQVTVSS” as the sequence, how does the “polyreactivity (PSR sort gate)” value read?
Answer: low polyreactivity

Question: Which “polyreactivity (PSR sort gate)” value does the source give for “QVQLVETGGGLVQAGGSLRLSCAASGRTLSQNTMGWNRQAPRKEREFVASITYSGGITYYADSVKGRFTISRDNAKNTVYLQMNSLKPEDTAVYYCNKRGSHYWYSYPGDYWGQGTQVTVSS” here?
Answer: low polyreactivity

Question: Which “polyreactivity (PSR sort gate)” value does the source give for “QVQLVESGGGLVQAGGSLRLSCAASGIIFHYYAMGWYRQAPGKERELVAAISGSGGSTYYADSVKGRFTISRDNAKNTVYLQMNSLKPEDTAVYYCAAKLWGGGGYWGQGTQVTVSS” here?
Answer: high polyreactivity

Question: Which “polyreactivity (PSR sort gate)” value does the source give for “QVQLVESGGGLVQAGGSLRLSCAASGRTFARYVMGWYRQAPGKERELVAAINSGGNTYYADSVKGRFTISRDNAKNTVYLQMNSLKPEDTAVYYCAVKAARTYYWGQGTQVTVSS” here?
Answer: high polyreactivity

Question: Which “polyreactivity (PSR sort gate)” value does the source give for “QEQLQESGGCLVQAGCSLRLSCAPSGTISDSGLMGWYRQPQGKERELVAGISSGGITNYADSVKGRLTISRDNAKNTVYLQMNSLKPEDTAVYYCAADSPVSVTADDGYWGQGTQVTVSS” here?
Answer: low polyreactivity

Question: With “QVQLVESGGGLVQAGGSLRLSCAASGRIFIRNDMGWYRQAPGKERELVAVITRSGGRTYYADSVKGRFTISRDNAMNTVYLQMNSLKPEDTAVYYCAKRQAFKQAPYEYWGQGSQVTVSS” as the sequence, how does the “polyreactivity (PSR sort gate)” value read?
Answer: low polyreactivity

Question: Which “polyreactivity (PSR sort gate)” value does the source give for “QVHLVESGGGLVQAGGSLRLSCAASGYTFLANAMGWYSQAPGKERELVAAISSGGTTYYADSVKGRFTISRDNAKNTVYLQMNSLKPEDTAVYYCATVFRDYDFNHWGQGTQVTVSS” here?
Answer: low polyreactivity

Question: Which “polyreactivity (PSR sort gate)” value does the source give for “QVQLVESGGGLVQAGGSLRLSCAASGFIFASNVMGWYRQAPGKERELVAAISWSGTRTYYADSVKGRFTISRDNAKNTVYLQMNSLKPEDTAVYYCAARRLYAGHQYDYWGQGTQVTVSS” here?
Answer: high polyreactivity

Question: For “QVQLVESGGGLVQAGGSLRLSCAASGLIFIAYAMGWYRQATGKERELVAAISSSGGSTYYADSVKGRFTISRDNAKNTVYLQMTSLKREDTAVYYCAADRYAWGTGRYGYWGQGTQVTVSS”, which “polyreactivity (PSR sort gate)” value is on record?
Answer: low polyreactivity

Question: Which “polyreactivity (PSR sort gate)” value does the source give for “QVQLVESGRGLVQAGGSLRLSCAASGVTFNVYAMGWYREAPGKVRELVAAISYNGGRTYYADSVKGRFTISRDNAKNTVYLQINSLKPEDTAVFYCAALYYFTPSDGRRYDYWGQCTQVTVSS” here?
Answer: high polyreactivity

Question: With “QVQLVESGGGLVQAGGSLRLSCAASGFIFGRYAMGWYRPAPGKERELVAAITASGGRTYYADSVKGRFTISRDNAKNTVYIQMNSLKPEDTAVYYCNTPSLWSGEDYWGQGTQVTVSS” as the sequence, how does the “polyreactivity (PSR sort gate)” value read?
Answer: low polyreactivity

Question: With “QVQLVESGGGLVQAGGSLRLSCAASGSIFSFYTMGWYRQAPGKERELVASISRSGGTTYYADSVKGRFTISRDNAKNTVYLQMNSLKPEDTAVYYCAVRQAKYGGAYYGYYYWGQGTQVTVSS” as the sequence, how does the “polyreactivity (PSR sort gate)” value read?
Answer: high polyreactivity

Question: With “QVQLVESGGGLVQAGGSLRLSCAASGFIFPDNVMGWYRQAPGKERELVAAISRSGGSTYYADSVKGRFTISRDNAKNTVYLQMNSLKPEDTAVYYCAVKFVRYRQGIVLYDYWGQGTQVTVSS” as the sequence, how does the “polyreactivity (PSR sort gate)” value read?
Answer: high polyreactivity

Question: Which “polyreactivity (PSR sort gate)” value does the source give for “QVQLVESGGGLVQAGGSLRLSCSASGSIFSANVMGWYRQAPGKDRELVAAIRRGGTTYYADSVKGRFTISRDNAKNTVYLQMNSLKPEDNAVYYCATDGIFGSYLRFEVAYDYWGQGTQVTVSS” here?
Answer: low polyreactivity

Question: Which “polyreactivity (PSR sort gate)” value does the source give for “QVHLVDSGGCLVQAGGSLRLSCAASGRTFSAYAMGWYRQAPGKEREVVAAISRSGGSTYYADSVKGRFTISRDNAKNTVYLPMNSLTPEDTAVYDCAVRWPSARIPVKLEDWGQGTQVTVSS” here?
Answer: high polyreactivity

Question: For “QVQLVESGGGLVQAGGSLRLSCAASGFTFKYNAMGWYRQAPGKERELVAGITLRGGSTYYADSVKGRFTISRDNAKNTVYLQMNSLKPEDTAVYYCGAAASNWREYWYWGQGTQVTVSS”, which “polyreactivity (PSR sort gate)” value is on record?
Answer: low polyreactivity

Question: Which “polyreactivity (PSR sort gate)” value does the source give for “QVQLVESGGGLVQAGGSIRLSCAASGRISTYYTMGWYRQAPGKERELVAAISWSGTSTYYADSVKGRFTISRDNAKNTVYLQMNSLKPEDTAVYYCNARWRYPLDSVTDDYWGQGTQVTVSS” here?
Answer: high polyreactivity

Question: Which “polyreactivity (PSR sort gate)” value does the source give for “QVQLVESGGGLVQAGGSLRLSCAASGITFYRNARGWYRQAPGNEMELVAAITWNGGRTYYADSVKGRVTISRDNAKNTVDLQMNSLKPEDTAVYDCAADSGTRNLASYRYYYWGQGTLVTVSS” here?
Answer: low polyreactivity

Question: With “QVQLVESGGALVQAGGSLRLTCAASGRTFYYYAKGWYRPAPGTERELVAAISCSGGRTYYADSVKGRFTISRDNANDTVYVPMNSLKPEDTAVFYCYAEPPSGYTVSSGGEMDYWGQGTQVTVSS” as the sequence, how does the “polyreactivity (PSR sort gate)” value read?
Answer: low polyreactivity

Question: For “QVQLVESGGGLVHDGGSLRLSCAASGSILWPYAMGLYRQAPGKERELVAAISTGGSTYYADSVKGRFTISRDNANNTVYLQRNSLKPEDTAVYYCAAFVDYSVYFGGGYWGQGTQVTVSS”, which “polyreactivity (PSR sort gate)” value is on record?
Answer: low polyreactivity

Question: With “QVQLVESGGGLVQAGGSLRLSCAASGFTFPVNAMGWYRQAPGKERELVAAIRWIGGDTYYADSVKGRFTISRDNAKNPVYLQMNSLKPEDTAVYYCAAEDTDDYSIWYEYWGQGTQVTVSS” as the sequence, how does the “polyreactivity (PSR sort gate)” value read?
Answer: high polyreactivity

Question: With “QVQVVESGGGLDQAGGSLGLSCAASGSIFIKYAMGWSRQAPRKERELVAAISRRGGSPYYADSVKGRFTISRDNAKNTVYLQMISLKPEDTAVYYCAAVNISFGYADRFYYVYRGDYWGQGTQVTVSS” as the sequence, how does the “polyreactivity (PSR sort gate)” value read?
Answer: high polyreactivity

Question: Which “polyreactivity (PSR sort gate)” value does the source give for “QVQLVESGGGLVQAGGSLRLSCAASGNIFSWYAKGWYRQAPGKERELVAAITSGGRTYYADSVKGRFTISRDNAKNTVYLQMNSLKPEDTAVYYCNAVSRLYNRRDYWVQGTQVTVSS” here?
Answer: high polyreactivity

Question: Which “polyreactivity (PSR sort gate)” value does the source give for “QVQLVESGGGLVQAGGSLRLSCDASGFIFGYYAMGWYRHAPGKERELVAAISRGDTSTYYADSVKGRFTISRDNAKNTVYLQMYSLKPEDTAVYYCAADWTGYGYYYWGQGTQVTVSS” here?
Answer: low polyreactivity

Question: With “QVQLVESGGGLVQAGGSLRLTCAASGITFISYAMGWYIQAPGKERELVAAITKSGGRTYYADSVKGRFTISRDNAKKTVYLQMNSLKPEDTAVYYCAAYHLRDNRIGGGYWGQGTQVTVSS” as the sequence, how does the “polyreactivity (PSR sort gate)” value read?
Answer: high polyreactivity

Question: For “QVQLVESGGGLVQAGGSLRLSCAASGFIFVYNAMGWYRQAPGKEREFVAGISRSGGNTYYADSVKGRFTISRDNAKNTVYLQMNSLKPEDTAVYYCAVVNRRFGFPNVALRSNYGDYWGQGTQVTVSS”, which “polyreactivity (PSR sort gate)” value is on record?
Answer: low polyreactivity

Question: Which “polyreactivity (PSR sort gate)” value does the source give for “QVQLVESGGGLVQAGGSLRLSCAPSGSIYDDYAMGWYRQAPGKERELVAAISSSGTSTYYADSVKGRFTISRDNAKNTVYLQMIRLKPEDTAGYYCAARSAILKSGYLMDYWGQGTLVTVSS” here?
Answer: low polyreactivity

Question: With “QVQLVESGGGLVQAGGSLRLSCAASGSIFPGYTMGWYRQAPGKERELVAAISWSDGSTYYADSVKGRFTISRDNAKNTVYLQMNSLKPDDTAVYYCNRDYRGPYYYWGQGTQVTVSS” as the sequence, how does the “polyreactivity (PSR sort gate)” value read?
Answer: high polyreactivity

Question: For “QVQLVESGGGLVQAGGSLRLSCAASGRIFYWYGMGWYRQAPGKERELVAGITYSASRTYYADSVKGRFTISRDNVKNTVYLQMNCMKPEVTAVYYCAAGRYHRDDGYDYWGQGTQVTVSS”, which “polyreactivity (PSR sort gate)” value is on record?
Answer: low polyreactivity

Question: Which “polyreactivity (PSR sort gate)” value does the source give for “QVQLVESGGGLVEAGGSLRLSCAASGGIFPVNAIGWYRQAPGKERELVATITYDGANTYYADSVKGRFTISRDNAKNTVYLQMNRLKPEDTAVYYCAKDRLSFYGYISYIGYGYDYWGQGTQVTVSS” here?
Answer: low polyreactivity
